Experimental findings from US11833164B2, “Methods of treating Fabry disease in patients having a mutation in the GLA gene” (Amicus Therapeutics, Inc., priority 2019, dated 2023) are described below.

Where a chain is given by its changes, count along the chain named. Names and notes keep the numbering of the source.

For this assay, the system named is mutant form of α-Gal A expressed in HEK-293 cells. Description: HEK assay (GLP HEK / Migalastat Amenability Assay): α-Gal A activity in lysates of transiently transfected HEK-293 cells incubated with or without 10 μM migalastat. The note with it: for Absolute increase (% WT) / Relative increase: 10 μM migalastat versus baseline; for Baseline α-Gal A activity (% WT): absence of migalastat; for Baseline α-Gal A activity (% WT) / 10 μM migalastat α-Gal A activity (% WT): percentage of baseline wild-type α-Gal A activity; for 10 μM migalastat α-Gal A activity: incubated 5 days with 10 μM migalastat; for 10 μM migalastat α-Gal A activity (% WT): with 10 μM migalastat, 5 days. It is filed as cell-based, human. An outline of the steps:
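HEK-293 cells transiently transfected with mutant α-Gal A and incubated with or without 10 μM migalastat; lysate activity given as nmol free 4-MU released per mg protein per hour. Values are mean±SEM.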

Where [1] appears, read: lysates of HEK-293 cells transiently transfected with the mutant form, incubated 5 days in absence of migalastat, mean ± SEM.
The mark [2] stands for this setting: lysates of HEK-293 cells transiently transfected with the mutant form, mean ± SEM.

B1: N298I (protein)
chain: MQLRNPELHLGCALALRFLALVSWDIPGARALDNGLARTPTMGWLHWERFMCNLDCQEEPDSCISEKLFMEMAELMVSEGWKDAGYEYLCIDDCWMAPQRDSEGRLQADPQRFPHGIRQLANYVHSKGLKLGIYADVGNKTCAGFPGSFGYYDIDAQTFADWGVDLLKFDGCYCDSLENLADGYKHMSLALNRTGRSIVYSCEWPLYMWPFQKPNYTEIRQYCNHWRNFADIDDSWKSIKSILDWTSFNQERIVDVAGPGGWNDPDMLVIGNFGLSWNQQVTQMALWAIMAAPLFMSIDLRHISPQAKALLQDKDVIAINQDPLGKQGYQLRQGDNFEVWERPLSGLAWAVAMINRQEIGGPRSYTIAVASLGKGVACNPACFITQLLPVKRKLGFYEWTSRLRSHINPTGTVLLQLENTMQMSLKDLL
With B1, the “Absolute increase (% WT)” value was 34.9 % WT and the Relative increase was determined as 4.7. Moreover, for the setting “mean ± SEM”, the “Baseline α-Gal A activity (% WT)” value was found to be 9.2 ± 0.7 % WT and the “10 μM migalastat α-Gal A activity (% WT)” value worked out at 44.1 ± 1.8 % WT. Moreover, the “Baseline α-Gal A activity” value under setting [1] came out at 2942 ± 262 nmol/mg/h. The “10 μM migalastat α-Gal A activity” value under setting [2] was found to be 13906 ± 535 nmol/mg/h.

B2: Q306E (protein)
chain: B1 chain with I298N, Q306E
On to B2, for which the “Absolute increase (% WT)” value was determined as 19.7 % WT and the Relative increase is 1.2. Further, for the setting “mean ± SEM”, the “Baseline α-Gal A activity (% WT)” value worked out at 82 ± 2.8 % WT and the “10 μM migalastat α-Gal A activity (% WT)” value is reported as 101.7 ± 4.2 % WT. Further, the “Baseline α-Gal A activity” value under setting [1] was determined as 31745 ± 2212 nmol/mg/h. Besides, the “10 μM migalastat α-Gal A activity” value under setting [2] amounted to 39019 ± 2405 nmol/mg/h.

B3: H302N (protein)
chain: B1 chain with I298N, H302N
Turning to B3, the “Absolute increase (% WT)” value is listed as 30.2 % WT and the Relative increase came to 1.3. For the same molecule, for the setting “mean ± SEM”, the “Baseline α-Gal A activity (% WT)” value is 91.2 ± 4.3 % WT and the “10 μM migalastat α-Gal A activity (% WT)” value worked out at 121.4 ± 6.2 % WT. Under setting [1], the “Baseline α-Gal A activity” value came out at 31958 ± 1777 nmol/mg/h. Moreover, the “10 μM migalastat α-Gal A activity” value under setting [2] was 42296 ± 2028 nmol/mg/h.

B4: N298T (protein)
chain: B1 chain with I298T
Take B4: the “Absolute increase (% WT)” value worked out at 14.2 % WT and the Relative increase is recorded as 1.2. For the same molecule, where the note is “mean ± SEM”, the “Baseline α-Gal A activity (% WT)” value is 61.2 ± 4.7 % WT and the “10 μM migalastat α-Gal A activity (% WT)” value came out at 75.4 ± 4.3 % WT. The “Baseline α-Gal A activity” value under setting [1] was determined as 20581 ± 1736 nmol/mg/h. Further, the “10 μM migalastat α-Gal A activity” value under setting [2] was 25249 ± 1705 nmol/mg/h.

B5: H302D (protein)
chain: B1 chain with I298N, H302D
As to B5, the “Absolute increase (% WT)” value was 25.8 % WT and the Relative increase amounted to 1.3. For the same molecule, where the note is “mean ± SEM”, the “Baseline α-Gal A activity (% WT)” value was found to be 95.1 ± 5.8 % WT and the “10 μM migalastat α-Gal A activity (% WT)” value was determined as 120.8 ± 6.6 % WT. Moreover, the “Baseline α-Gal A activity” value under setting [1] worked out at 32677 ± 1437 nmol/mg/h. Besides, under setting [2], the “10 μM migalastat α-Gal A activity” value is 41716 ± 1847 nmol/mg/h.

B6: D299N (protein)
chain: B1 chain with I298N, D299N
Regarding B6, the “Absolute increase (% WT)” value was found to be 7.8 % WT and the Relative increase came to 1.2. For the same molecule, under “mean ± SEM”, the “Baseline α-Gal A activity (% WT)” value was determined as 29.2 ± 4.7 % WT and the “10 μM migalastat α-Gal A activity (% WT)” value was 37.1 ± 2.9 % WT. Moreover, under setting [1], the “Baseline α-Gal A activity” value stood at 11973 ± 1961 nmol/mg/h. Moreover, the “10 μM migalastat α-Gal A activity” value under setting [2] is 14668 ± 809 nmol/mg/h.

B7: D299H (protein)
chain: B1 chain with I298N, D299H
As to B7, the “Absolute increase (% WT)” value was 22.1 % WT and the Relative increase was found to be 23.5. In addition, for the setting “mean ± SEM”, the “Baseline α-Gal A activity (% WT)” value is 1 ± 0.1 % WT and the “10 μM migalastat α-Gal A activity (% WT)” value is 23.1 ± 2.4 % WT. Further, under setting [1], the “Baseline α-Gal A activity” value was 358 ± 36 nmol/mg/h. Also, under setting [2], the “10 μM migalastat α-Gal A activity” value came out at 8424 ± 875 nmol/mg/h.

B8: H302L (protein)
chain: B1 chain with I298N, H302L
Consider B8, for which the “Absolute increase (% WT)” value turned out to be 24.6 % WT and the Relative increase is listed as 1.4. For the same molecule, for the setting “mean ± SEM”, the “Baseline α-Gal A activity (% WT)” value worked out at 60.7 ± 5.1 % WT and the “10 μM migalastat α-Gal A activity (% WT)” value came out at 85.3 ± 4.7 % WT. Moreover, the “Baseline α-Gal A activity” value under setting [1] is 24188 ± 1797 nmol/mg/h. Also, the “10 μM migalastat α-Gal A activity” value under setting [2] is 34251 ± 1760 nmol/mg/h.

B9: S304I (protein)
chain: B1 chain with I298N, S304I
As for B9, the “Absolute increase (% WT)” value is recorded as 13.9 % WT and the Relative increase was 1.5. Under “mean ± SEM”, the “Baseline α-Gal A activity (% WT)” value came out at 30.6 ± 1.4 % WT and the “10 μM migalastat α-Gal A activity (% WT)” value came out at 44.6 ± 2.4 % WT. Also, under setting [1], the “Baseline α-Gal A activity” value was 11675 ± 939 nmol/mg/h. The “10 μM migalastat α-Gal A activity” value under setting [2] amounted to 17257 ± 1837 nmol/mg/h.

B10: L300I (protein)
chain: B1 chain with I298N, L300I
On to B10, for which the “Absolute increase (% WT)” value came out at 34.4 % WT and the Relative increase worked out at 2.6. Moreover, where the note is “mean ± SEM”, the “Baseline α-Gal A activity (% WT)” value was 20.7 ± 0.9 % WT and the “10 μM migalastat α-Gal A activity (% WT)” value came to 55.1 ± 2 % WT. Also, the “Baseline α-Gal A activity” value under setting [1] was 7328 ± 448 nmol/mg/h. Besides, under setting [2], the “10 μM migalastat α-Gal A activity” value was found to be 19317 ± 757 nmol/mg/h.

B11: I303S (protein)
chain: B1 chain with I298N, I303S
Consider B11, for which the “Absolute increase (% WT)” value turned out to be 3.8 % WT. Besides, under setting [1], the “Baseline α-Gal A activity (nmol/mg/hr)” value was “BLD (“BLD” indicates that the mean α-Gal A activity was below the limit of detection (<142 nmol/mg/hr))”. Moreover, the “10 μM migalastat α-Gal A activity” value under setting [2] was 1496 ± 117 nmol/mg/h. Moreover, under “mean ± SEM”, the “10 μM migalastat α-Gal A activity (% WT)” value was 3.8 ± 0.3 % WT.

B12: H302Y (protein)
chain: B1 chain with I298N, H302Y
For B12, the “Absolute increase (% WT)” value is recorded as 25.3 % WT and the Relative increase amounted to 1.4. Moreover, for the setting “mean ± SEM”, the “Baseline α-Gal A activity (% WT)” value was 59 ± 3.5 % WT and the “10 μM migalastat α-Gal A activity (% WT)” value came out at 84.2 ± 5.2 % WT. Further, the “Baseline α-Gal A activity” value under setting [1] amounted to 22554 ± 1372 nmol/mg/h. In addition, the “10 μM migalastat α-Gal A activity” value under setting [2] was 31688 ± 1241 nmol/mg/h.

B13: L300V (protein)
chain: B1 chain with I298N, L300V
Take B13: the “Absolute increase (% WT)” value is listed as 14.0 % WT and the Relative increase is 13.2. Moreover, under “mean ± SEM”, the “Baseline α-Gal A activity (% WT)” value is recorded as 1.3 ± 0.2 % WT and the “10 μM migalastat α-Gal A activity (% WT)” value is 15.3 ± 0.6 % WT. The “Baseline α-Gal A activity” value under setting [1] was 406 ± 48 nmol/mg/h. In addition, the “10 μM migalastat α-Gal A activity” value under setting [2] was 5354 ± 203 nmol/mg/h.
